B1: glmS ribozyme (parent)
chain: AUAAAAGCGCCAGAACUACAGAAAUGUAGUUGACGAGGAGGAGGUUUAUCGAAUUUUCGGCGGAUGCCUCCAAA

± gives the standard error. For some assays here: This sample holds only a part of the variants without activity.

Holding throughout (conditions): with glucosamine-6-phosphate
Variants of B1 are the subject of data set [1]. As to the kind of experiment: kcat; higher = faster cleavage; RNA array. In short, it runs like this:
(§1)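 Weighted Michaelis–Menten fits across concentrations supplied kcat and KM, based on kobs from one- or two-exponential decay fits to normalised per-tile medians. The data came from barcoded ribozyme variants transcribed in situ by E. coli RNA polymerase on sequenced MiSeq chips and tracked at 37 °C by a hybridised Cy3 probe. Glucosamine-6-phosphate (40 μM to 10 mM) in HEPES/KCl/Mg(OAc)2 buffer was flowed in.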

Variants of B1 are the subject of data set [2]. Put plainly: KM; higher = weaker cofactor use; RNA array. The method in brief:
as §1

The variants in data set [3] derive from B1. As to the kind of experiment: self-cleavage kobs at 640 uM GlcN6P; higher = faster cleavage; RNA array. The method in brief: as §1
Variants of B1 are the subject of data set [4]. As to the kind of experiment: self-cleavage kobs at 2500 uM GlcN6P; higher = faster cleavage; RNA array. In short, it runs like this: as §1
The variants in data set [5] derive from B1. Put plainly: self-cleavage kobs at 10000 uM GlcN6P; higher = faster cleavage; RNA array. The method in brief: as §1
The variants in data set [6] derive from B1. As to the kind of experiment: self-cleavage kobs at 40 uM GlcN6P; higher = faster cleavage; RNA array. The method in brief: as §1
Variants of B1 are the subject of data set [7]. As to the kind of experiment: self-cleavage kobs at 160 uM GlcN6P; higher = faster cleavage; RNA array. The method in brief: as §1

For orientation: kcat means the number of substrate molecules converted per active site and unit of time at saturation. For orientation: KM means the concentration of substrate that gives half-maximal velocity. As for G59A, the kcat with glucosamine-6-phosphate [1] came out at 8.71e-05 ± 2.2e-06 s⁻¹. Moreover, the KM in the data set with glucosamine-6-phosphate [2] is 1670 ± 170 µM. Besides, the “self-cleavage kobs at 640 uM GlcN6P” value with glucosamine-6-phosphate [3] is 2.2e-05 ± 1.9e-06 s⁻¹. In addition, the “self-cleavage kobs at 2500 uM GlcN6P” value with glucosamine-6-phosphate [4] amounted to 5.42e-05 ± 1.8e-06 s⁻¹. The “self-cleavage kobs at 10000 uM GlcN6P” value with glucosamine-6-phosphate [5] is 7.42e-05 ± 1.2e-06 s⁻¹.
In the case of A14G C70U C71G, the catalytic constant (kcat) with glucosamine-6-phosphate [1] amounted to 0.000213 ± 6.9e-05 s⁻¹. Moreover, the “self-cleavage kobs at 640 uM GlcN6P” value in the data set with glucosamine-6-phosphate [3] is 0.000185 ± 3.7e-05 s⁻¹. Further, the “self-cleavage kobs at 2500 uM GlcN6P” value with glucosamine-6-phosphate [4] worked out at 0.00039 ± 8.8e-05 s⁻¹. The “self-cleavage kobs at 10000 uM GlcN6P” value in the data set with glucosamine-6-phosphate [5] worked out at 0.000168 ± 3.3e-05 s⁻¹.
As for U54G G66A, the catalytic constant (kcat) in the data set with glucosamine-6-phosphate [1] amounted to 0.0134 ± 0.0022 s⁻¹. Further, the Michaelis-Menten constant (KM) with glucosamine-6-phosphate [2] turned out to be 1380 ± 320 µM. Also, in the data set with glucosamine-6-phosphate [6], the “self-cleavage kobs at 40 uM GlcN6P” value was found to be 0.000427 ± 4.8e-05 s⁻¹. For the same variant, the “self-cleavage kobs at 160 uM GlcN6P” value with glucosamine-6-phosphate [7] was determined as 0.00123 ± 0.00022 s⁻¹. In addition, the “self-cleavage kobs at 640 uM GlcN6P” value with glucosamine-6-phosphate [3] was found to be 0.00385 ± 0.00097 s⁻¹. Also, the “self-cleavage kobs at 2500 uM GlcN6P” value with glucosamine-6-phosphate [4] worked out at 0.00659 ± 0.0015 s⁻¹. The “self-cleavage kobs at 10000 uM GlcN6P” value with glucosamine-6-phosphate [5] is 0.0132 ± 0.0016 s⁻¹.
For the variant G13A, the turnover number (kcat) with glucosamine-6-phosphate [1] was determined as 0.00142 ± 0.00018 s⁻¹. Besides, the Michaelis constant (KM) with glucosamine-6-phosphate [2] stood at 4830 ± 750 µM. In addition, the “self-cleavage kobs at 40 uM GlcN6P” value with glucosamine-6-phosphate [6] was found to be 1.56e-05 ± 1.7e-06 s⁻¹. Besides, the “self-cleavage kobs at 160 uM GlcN6P” value in the data set with glucosamine-6-phosphate [7] was found to be 4.65e-05 ± 1.7e-06 s⁻¹. Besides, in the data set with glucosamine-6-phosphate [3], the “self-cleavage kobs at 640 uM GlcN6P” value is 0.000162 ± 3.8e-06 s⁻¹. In addition, in the data set with glucosamine-6-phosphate [4], the “self-cleavage kobs at 2500 uM GlcN6P” value amounted to 0.00057 ± 3.3e-05 s⁻¹. Besides, in the data set with glucosamine-6-phosphate [5], the “self-cleavage kobs at 10000 uM GlcN6P” value is 0.000945 ± 3.6e-05 s⁻¹.
With A6U U45G, the turnover number (kcat) with glucosamine-6-phosphate [1] was 0.000193 ± 3.9e-05 s⁻¹. Further, in the data set with glucosamine-6-phosphate [7], the “self-cleavage kobs at 160 uM GlcN6P” value was below 1e-05 s⁻¹. The “self-cleavage kobs at 10000 uM GlcN6P” value in the data set with glucosamine-6-phosphate [5] was found to be 4.41e-05 ± 9.1e-06 s⁻¹.
In the case of G41C G66C, the catalytic constant (kcat) in the data set with glucosamine-6-phosphate [1] turned out to be 1.55e-05 ± 2.4e-06 s⁻¹. The “self-cleavage kobs at 40 uM GlcN6P” value with glucosamine-6-phosphate [6] was below 1e-05 s⁻¹. The “self-cleavage kobs at 640 uM GlcN6P” value in the data set with glucosamine-6-phosphate [3] is below 1e-05 s⁻¹.
With A39G G40U, the kcat in the data set with glucosamine-6-phosphate [1] is 0.0022 ± 0.00044 s⁻¹. In addition, in the data set with glucosamine-6-phosphate [2], the KM turned out to be 1420 ± 510 µM. In addition, the “self-cleavage kobs at 40 uM GlcN6P” value with glucosamine-6-phosphate [6] came out at 9.64e-05 ± 1.6e-05 s⁻¹. In the data set with glucosamine-6-phosphate [7], the “self-cleavage kobs at 160 uM GlcN6P” value came out at 0.000207 ± 4.9e-05 s⁻¹. Moreover, the “self-cleavage kobs at 640 uM GlcN6P” value in the data set with glucosamine-6-phosphate [3] turned out to be 0.000551 ± 8.8e-05 s⁻¹. In addition, the “self-cleavage kobs at 2500 uM GlcN6P” value in the data set with glucosamine-6-phosphate [4] turned out to be 0.0015 ± 0.00022 s⁻¹. Further, the “self-cleavage kobs at 10000 uM GlcN6P” value with glucosamine-6-phosphate [5] is 0.00197 ± 0.00022 s⁻¹.
On to G38A C70G, for which, in the data set with glucosamine-6-phosphate [1], the turnover number (kcat) was found to be 1.82e-05 ± 1.9e-06 s⁻¹.
As for U65C C67U, the kcat in the data set with glucosamine-6-phosphate [1] stood at 0.000111 ± 9.1e-06 s⁻¹. For the same variant, the Michaelis-Menten constant (KM) with glucosamine-6-phosphate [2] is 2040 ± 650 µM. The “self-cleavage kobs at 2500 uM GlcN6P” value with glucosamine-6-phosphate [4] came out at 7.62e-05 ± 2.6e-05 s⁻¹. The “self-cleavage kobs at 10000 uM GlcN6P” value in the data set with glucosamine-6-phosphate [5] is 9.15e-05 ± 1e-05 s⁻¹.
Take A12G U47G: the kcat in the data set with glucosamine-6-phosphate [1] was 0.000821 ± 0.00017 s⁻¹. The Michaelis-Menten constant (KM) in the data set with glucosamine-6-phosphate [2] is 4640 ± 1600 µM. The “self-cleavage kobs at 160 uM GlcN6P” value with glucosamine-6-phosphate [7] was 1.69e-05 ± 7.8e-06 s⁻¹. For the same variant, the “self-cleavage kobs at 640 uM GlcN6P” value with glucosamine-6-phosphate [3] was found to be 0.000127 ± 1.6e-05 s⁻¹. In the data set with glucosamine-6-phosphate [4], the “self-cleavage kobs at 2500 uM GlcN6P” value is 0.000266 ± 2.7e-05 s⁻¹. Further, the “self-cleavage kobs at 10000 uM GlcN6P” value with glucosamine-6-phosphate [5] worked out at 0.000573 ± 4.8e-05 s⁻¹.
For the variant G7U C8G C50A, in the data set with glucosamine-6-phosphate [1], the kcat was found to be 2.71e-05 ± 5.9e-06 s⁻¹.
On to A53C U57A U69A, for which the turnover number (kcat) with glucosamine-6-phosphate [1] came out at 1.88e-05 ± 5.8e-06 s⁻¹.
Regarding G37U U69C, the turnover number (kcat) with glucosamine-6-phosphate [1] worked out at 1.14e-05 ± 5.4e-06 s⁻¹. The “self-cleavage kobs at 160 uM GlcN6P” value in the data set with glucosamine-6-phosphate [7] was below 1e-05 s⁻¹. Moreover, the “self-cleavage kobs at 10000 uM GlcN6P” value with glucosamine-6-phosphate [5] is below 1e-05 s⁻¹.
U54C A64U: in the data set with glucosamine-6-phosphate [1], the kcat stood at 7.19e-05 ± 1e-05 s⁻¹. In the data set with glucosamine-6-phosphate [4], the “self-cleavage kobs at 2500 uM GlcN6P” value came out at 5.96e-05 ± 1.3e-05 s⁻¹. The “self-cleavage kobs at 10000 uM GlcN6P” value with glucosamine-6-phosphate [5] was found to be 6.16e-05 ± 1.3e-05 s⁻¹.
U30C G66U: the kcat in the data set with glucosamine-6-phosphate [1] was below 1e-05 s⁻¹. Besides, the “self-cleavage kobs at 160 uM GlcN6P” value with glucosamine-6-phosphate [7] is below 1e-05 s⁻¹.
Regarding A39U A53C, in the data set with glucosamine-6-phosphate [1], the kcat came to 0.00528 ± 0.0015 s⁻¹. Besides, in the data set with glucosamine-6-phosphate [2], the KM was determined as 2890 ± 1100 µM. In the data set with glucosamine-6-phosphate [6], the “self-cleavage kobs at 40 uM GlcN6P” value was found to be 9.69e-05 ± 1.1e-05 s⁻¹. For the same variant, in the data set with glucosamine-6-phosphate [7], the “self-cleavage kobs at 160 uM GlcN6P” value is 0.000314 ± 4.2e-05 s⁻¹. Also, the “self-cleavage kobs at 640 uM GlcN6P” value with glucosamine-6-phosphate [3] turned out to be 0.000759 ± 8.9e-05 s⁻¹. Also, the “self-cleavage kobs at 2500 uM GlcN6P” value with glucosamine-6-phosphate [4] worked out at 0.00228 ± 0.00027 s⁻¹. Moreover, the “self-cleavage kobs at 10000 uM GlcN6P” value with glucosamine-6-phosphate [5] was 0.00454 ± 0.00047 s⁻¹.
As to A6C C68U, in the data set with glucosamine-6-phosphate [1], the catalytic constant (kcat) was found to be 4.51e-05 ± 1.8e-06 s⁻¹. Besides, the KM with glucosamine-6-phosphate [2] is 534 ± 140 µM. Also, the “self-cleavage kobs at 2500 uM GlcN6P” value in the data set with glucosamine-6-phosphate [4] was 3.96e-05 ± 9.1e-06 s⁻¹. The “self-cleavage kobs at 10000 uM GlcN6P” value with glucosamine-6-phosphate [5] came to 4.19e-05 ± 6.8e-06 s⁻¹.
As for A52U U57G, the kcat with glucosamine-6-phosphate [1] turned out to be 5.28e-05 ± 9.7e-06 s⁻¹. Besides, the “self-cleavage kobs at 40 uM GlcN6P” value with glucosamine-6-phosphate [6] is below 1e-05 s⁻¹. Also, the “self-cleavage kobs at 10000 uM GlcN6P” value in the data set with glucosamine-6-phosphate [5] came out at 4.88e-05 ± 7.6e-06 s⁻¹.
